This note sets out measurements from PMC5112516.

Positions count from the first letter of the chain named.

By Kd is commonly meant a measure of binding affinity in units of concentration.

Test in all cases: tryptophan fluorescence quenching
What all share (conditions): Fluorescence and EMSA: PBS (130 mM NaCl, 2.7 mM KCl, 10 mM Na2HPO4, 2 mM KH2PO4, pH 7.4), 25 C; ELISA: 10 mM KH2PO4, 50 mM KCl, pH 7, 0.1% Tween 20

The target in data set [1] is T1, Sac7d (Sulfolobus acidocaldarius) (UniProt P13123).
T1 sequence: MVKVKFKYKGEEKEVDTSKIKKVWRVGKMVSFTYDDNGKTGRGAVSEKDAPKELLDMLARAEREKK

The target of data set [2] is T2, Aho7a (Acidianus hospitalis) (UniProt F4B991).
T2 sequence: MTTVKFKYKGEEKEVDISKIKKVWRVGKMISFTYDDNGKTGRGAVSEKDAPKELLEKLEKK

For data set [3], the target named is T3, Sso7d (Sulfolobus solfataricus) (UniProt P39476).
T3 sequence: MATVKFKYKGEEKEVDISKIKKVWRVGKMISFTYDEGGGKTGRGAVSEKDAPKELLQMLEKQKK

Data set [4] concerns the target T4, Aho7c (Acidianus hospitalis) (UniProt F4B8X5).
T4 sequence: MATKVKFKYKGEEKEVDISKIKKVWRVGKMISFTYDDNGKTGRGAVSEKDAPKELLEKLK

In data set [5] the test system is Sto7.
Data set [6] addresses T1, Sac7d (Sulfolobus acidocaldarius). The source holds these as a separate data set.
The subject of data set [7] is Mse7.
Data set [8] has as its target T5, Ssh7b (Sulfolobus shibatae) (UniProt O59632).
T5 sequence: T3 sequence with A2V, I17T

Data set [9] has as its system Sis7b.
Data set [10] addresses T6, Aho7b (Acidianus hospitalis) (UniProt F4B9I5).
T6 sequence: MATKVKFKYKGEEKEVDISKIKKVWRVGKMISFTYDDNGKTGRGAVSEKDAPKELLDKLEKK

Data set [11] has as its target T7, Ssh7a (Sulfolobus shibatae) (UniProt P61990).
T7 sequence: T3 sequence with E14Q

Data set [12] relates to Sis7a.
Data set [13] deals with Mcu7.
The target in data set [14] is T8, Sac7e (Sulfolobus acidocaldarius) (UniProt P13125).
T8 sequence: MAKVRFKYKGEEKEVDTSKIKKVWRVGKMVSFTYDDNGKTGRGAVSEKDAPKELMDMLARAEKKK

As for calf-thymus DNA (ct-DNA), sonicated, the Kd in data set [1] amounted to 0.203 µM; in [2], 16 µM; in data set [3], 17 µM; in data set [4], 16 µM; in data set [5] it was 14 µM; in data set [6], 13 µM. For the same substance, the Kd was determined as 15 µM in [7]; 22 µM in data set [8]; 16 µM in data set [9]; 13 µM in [10]; 18 µM in [11]; 15 µM in data set [12]. The Kd in [13] stood at 16 µM; in data set [14], 11 µM.
